{"source": "patent US6428997B1", "about": "“Aminopeptidase derived from Bacillus licheniformis and process for preparation of natural type proteins” (LG Chemical Ltd., priority 1997, dated 2002)", "key": {"[1]": {"system": "CC(C)C[C@H](N)C(=O)Nc1ccc([N+](=O)[O-])cc1", "test": "purified protein, by the assay type", "conditions": "other: Tris-Cl pH 8.0, 37° C., measured by same experiment, Lineweaver-Burk plot", "procedure": "(§1) Precisely, 1 U of enzyme activity defines the enzyme quantity changing 1 absorbance at 405 nm which is measured by the process adding aminopeptidase in 1 ml solution of 100M Tris-Cl (pH 8.0) and 2 mM leucine-p-nitroanilide (Sigma, USA), incubating at 37° C. for 1 min, then adding 100 μl of 70% acetic acid to stop the reaction. At that time leucine-p-nitroanilide was dissolved in dimethylsulfoxide (DMSO) to make 100 mM solution.\n(§2) In order to compare substrate specificity of aminopeptidase of this invention, 2 kinds of substrate were used. In detail, one was synthetic substrates of p-nitroanilide derivative and purchased from Sigma, USA and the other was oligopeptide such as methionyl oligopeptide of SEQ. ID. NO: 1 which have amino acid sequence similar to N-terminus of methionyl HGH and leucyl oligopeptide of SEQ. ID. NO: 2.\n(§3) Enzyme reaction of aminopeptidase was performed by the process described in Reference Examples. At that time p-nitroanilide derivative was used as synthetic substrate. Leucine p-nitroanilide was used as substrate to perform the reaction in concentration of 0.03125, 0.0625, 0.125, 0.25, 0.5, 1 mM and methionine p-nitroanilide in 0.125, 0.25, 0.5, 1 mM and aminopeptidase in 0.5 U respectively. Above reactions using leucine-p-nitroanilide proceeded for 2 min and methionine-p-nitroanilide for 40 min. Then 70% acetic acid was added to stop the reactions and absorbance at 405 nm was measured. The product concentration was measured by adopting absorbance constant ε405=9450M^−1 cm^−1.\n(§4) In reaction condition mentioned above, initial velocity of enzyme reaction was measured with varying the substrate concentration. Lineweaver-Burk plot was used to determine Km value and Maximum reaction velocity of aminopeptidase from Bacillus licheniformis. In addition kcat and kcat/Km was determined by using Km value and maximum reaction velocity described above."}, "[2]": {"system": "CSCC[C@H](N)C(=O)Nc1ccc([N+](=O)[O-])cc1", "test": "purified protein, by the assay type", "conditions": "other: Tris-Cl pH 8.0, 37° C., measured by same experiment, Lineweaver-Burk plot", "procedure": "as §1, §2, §3, §4"}}}
{"substance": "Aeromonas proteolytica (Vibrio proteolytica) aminopeptidase (Vibrio proteolyticus)", "values": [{"measurement": "Km", "setting": "[1]", "result": 240, "unit": "µM"}, {"measurement": "kcat", "setting": "[1]", "result": 48, "unit": "s⁻¹"}, {"measurement": "kcat/Km", "setting": "[1]", "result": 200000, "unit": "M⁻¹ s⁻¹"}, {"measurement": "Km", "setting": "[2]", "result": 942, "unit": "µM"}, {"measurement": "kcat", "setting": "[2]", "result": 2.64, "unit": "s⁻¹"}, {"measurement": "kcat/Km", "setting": "[2]", "result": 2800, "unit": "M⁻¹ s⁻¹"}]}
